For 1 protein, Km and kcat results are on record in article PMC6773797, “Identification and molecular characterization of a psychrophilic GH1 β-glucosidase from the subtropical soil microorganism Exiguobacterium sp. GXG2” (AMB Express, 2019).

Substrate in this data set: O=[N+]([O-])c1ccc(O[C@@H]2O[C@H](CO)[C@@H](O)[C@H](O)[C@H]2O)cc1
Briefly: purified protein. The data set is classed as biochemical, Exiguobacterium sp. GXG2. As to conditions: pH 7.0, 35 °C, 1–10 mM substrate.

B1: BglG (Exiguobacterium sp. GXG2) (protein)
chain: MKMPKDFLFGAASASYQVEGAWNVDGKGVSNWDVFSKIPGKTFEATNGDVAIDHYHRYKEDIGLMAEMGLESYRFSISWPRIFPNGTGEVNEKGLEFYNNVIDECLKHGIVPFVTLYHWDLPQVLEEQGGWRSPETADAFVRFAKTCFEAFGDRVRNWITFNETVIFCSLGYLTGAHPPGITGDAKAYFQTTHNVFVAHARAVEAFKEAGYEGEIGITHVFNPAFSIDEAPENKQAEVHANEYATHWFYDPILKGEYPAYVVKDLEKQGLLPEWTEEELDLLKRTAPLNDFIGLNYYCPQRVMKNDSALVMAGGRENSTGRPGNPSFDGVYKTVLMDDKVYTKWGWEIAPDAFLEGMRMLQARYGDIKIYITENGLGDEDPIVGEEIMDTPRIEYIESHLRAVKRAVEEGINVSGYYAWSVIDLLSWLNGYKKQYGFIYVDHANGLARKKKQSFHWYQEIIATRAAEL
notes: six-histidine tag kept, about 58 kDa on SDS-PAGE; pETBlue-2, E. coli Tuner(DE3)pLacI; Ni-NTA purified
For B1, the Km is 1100 µM and the kcat came to 12.7 s⁻¹.
